Test results from US20220372154A1 (APEXIGEN, published 2022).

Columns and labels:
[1] = biological target: T1, cynomolgus TNFR2-His tagged protein (cynomolgus, UniProt A0A2K5VET2 132-366); assay: ELISA, cynomolgus TNFR2
T1 construct: also called Cyno TNFR2; cynomolgus TNFR2 protein; not shown: His tag
T1 sequence: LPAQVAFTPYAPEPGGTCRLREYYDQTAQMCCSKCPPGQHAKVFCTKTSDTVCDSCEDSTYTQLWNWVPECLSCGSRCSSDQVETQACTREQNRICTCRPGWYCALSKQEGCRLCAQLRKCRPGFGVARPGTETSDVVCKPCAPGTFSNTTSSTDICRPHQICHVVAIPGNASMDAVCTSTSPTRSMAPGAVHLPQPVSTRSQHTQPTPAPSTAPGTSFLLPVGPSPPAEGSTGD

[2] = biological target: T2, human TNFR2-His tagged protein (soluble) (human, UniProt P20333 23-257); assay: ELISA, soluble human TNFR2
T2 construct: also called hTNFR2 (soluble); soluble TNFR2-His; not shown: His tag
T2 sequence (looked up): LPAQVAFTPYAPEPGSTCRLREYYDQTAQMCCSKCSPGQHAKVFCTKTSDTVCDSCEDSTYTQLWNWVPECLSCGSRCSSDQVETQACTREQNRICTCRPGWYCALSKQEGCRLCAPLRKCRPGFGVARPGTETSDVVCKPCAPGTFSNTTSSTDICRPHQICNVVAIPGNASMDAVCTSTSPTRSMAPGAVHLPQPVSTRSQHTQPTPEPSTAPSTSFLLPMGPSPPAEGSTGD

[3] = biological target: T3, human TNFR2 expressed on cells (human, UniProt P20333 23-461); assay: flow cytometry, cell-expressed human TNFR2
T3 construct: whole, on cells; also called hTNFR2 (cell); CHO-TNFR2
T3 sequence (looked up): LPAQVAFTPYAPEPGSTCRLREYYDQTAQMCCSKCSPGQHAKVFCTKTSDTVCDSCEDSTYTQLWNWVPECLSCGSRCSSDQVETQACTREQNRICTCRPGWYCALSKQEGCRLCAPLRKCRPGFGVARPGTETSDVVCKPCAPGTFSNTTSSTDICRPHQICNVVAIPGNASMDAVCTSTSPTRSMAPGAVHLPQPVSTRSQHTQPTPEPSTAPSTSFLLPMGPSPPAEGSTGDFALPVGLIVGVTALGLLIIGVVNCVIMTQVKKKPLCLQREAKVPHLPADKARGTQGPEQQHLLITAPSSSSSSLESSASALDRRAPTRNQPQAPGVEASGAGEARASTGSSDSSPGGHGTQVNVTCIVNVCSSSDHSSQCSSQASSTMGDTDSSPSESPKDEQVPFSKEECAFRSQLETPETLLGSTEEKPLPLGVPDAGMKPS

[4] = biological target: T3, human TNFR2 expressed on cells; assay: cell binding on TNFR2-overexpressing (OE) cells
[5] = biological target: T2, human TNFR2-His tagged protein (soluble); assay: ELISA on coated human TNFR2-His
Method: (§1) In FIGS. 3A-3B, human (3A) or cynomolgus (3B) TNFR2-His tagged protein was coated on 96-well ELISA plates at 1 μg/mL and incubated overnight at 4° C. Plates were washed and blocked using 1% BSA. Antibodies were added for 1 hour at room temperature (RT), washed, and detected using anti-Human HRP. Assay was developed using TMB substrate for 3-5 minutes. In FIG. 3C, FACS binding was performed on CHO cells that were engineered to express human TNFR2. Briefly, antibodies were incubated with 200,000 cells in MACS buffer for 1 hour followed by wash and detection using anti-human IgG BV421 for 20 minutes. Samples were analyzed using Cytoflex or MACSQuant flow cytometers. In FIG. 3D, ligand blocking ELISA was performed by coating plates with 1 ug/mL TNFR-Fc overnight at 4° C. Plates were washed, blocked and antibodies were incubated for 1 hr at RT. […] Assay was developed using TMB substrate for 5-7 minutes.

[6] = biological target: T1, cynomolgus TNFR2-His tagged protein; assay: ELISA on coated cynomolgus TNFR2-His
Method: as §1

TNFR-Fc = biological target: T4, TNFR-Fc (UniProt P20333 23-257, limits assumed); assay: TNF-α blocking ELISA on coated TNFR-Fc
T4 construct: Printed only as TNFR-Fc; not shown: Fc part
T4 sequence (looked up): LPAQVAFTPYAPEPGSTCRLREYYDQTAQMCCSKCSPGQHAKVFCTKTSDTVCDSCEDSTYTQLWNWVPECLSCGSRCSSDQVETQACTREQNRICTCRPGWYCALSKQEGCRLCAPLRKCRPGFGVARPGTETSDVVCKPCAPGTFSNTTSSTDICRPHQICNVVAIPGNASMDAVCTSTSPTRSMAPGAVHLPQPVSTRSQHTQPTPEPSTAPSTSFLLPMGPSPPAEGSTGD
Method: as §1

[7] = biological target: T3, human TNFR2 expressed on cells; assay: flow cytometry on CHO cells expressing human TNFR2
Method: as §1

soluble mouse TNFR2 = biological target: T5, soluble mouse TNFR2 (mouse, UniProt P25119 23-258, limits assumed); assay: binding screen on soluble mouse TNFR2 (mouse cross-reactivity)
T5 sequence (looked up): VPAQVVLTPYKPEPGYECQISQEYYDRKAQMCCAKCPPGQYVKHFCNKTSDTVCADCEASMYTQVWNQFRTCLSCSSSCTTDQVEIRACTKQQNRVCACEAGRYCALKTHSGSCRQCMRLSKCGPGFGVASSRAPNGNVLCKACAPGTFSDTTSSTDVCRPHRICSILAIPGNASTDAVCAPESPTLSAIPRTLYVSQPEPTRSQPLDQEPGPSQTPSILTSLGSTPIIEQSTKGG

Binder	EC50 [1] [nM]	EC50 [2] [nM]	EC50 [3] [nM]	Kd [4] [nM]	EC50 [5] [nM]	EC50 [6] [nM]	IC50 (TNFR-Fc) [nM]	EC50 [7] [nM]	binding result (soluble mouse TNFR2)
humanized antibody clone 25-10 (h600_24_10) (antibody, V domains shown, its CDRs are those of rab600_25_10) VH: EVQLLESGGGLVQPGGSLRLSCAASGIDLSRYAMAWVRQAPGKGLEWVGYIDTGDSTYYATWAKGRFTISRDNSKNTLYLQMNSLRAEDTAVYYCTNVGVRMYLWGQGTLVTVSS VL: DIQMTQSPSSLSASVGDRVTITCQASQSISSYLSWYQQKPGKAPKLLIYRASTLESGVPSRFSGSGSGTDFTLTISSLQPEDFATYYCQCGYYGGSYIGAFGGGTKVEIK	0.113	0.053	1.38	1.05	–	–	–	–	–
humanized antibody clone 25-103 (h600_24_103) (antibody, V domains shown, its CDRs are those of rab600_25_103) VH: EVQLVESGGGLVQPGGSLRLSCAASGIDLSSYAMGWVRQAPGKGLEWVGFIDTGGSTYYANWAKGRFTISRDNSKNTLYLQMNSLRAEDTAVYYCANVGARMYLWGQGTLVTVSS VL: DIQMTQSPSSLSASVGDRVTITCQASQSISNLLAWYQQKPGKAPKLLIYRASTLESGVPSRFSGSGSGTDFTLTISSLQPEDFATYYCQCSYYGGSYIGAFGGGTKVEIK	0.107	0.097	0.57	0.468	–	–	–	–	–
humanized antibody h600_23_24_H (antibody, V domains shown) VH: EVQLVESGGGLVQPGGSLRLSCAASGFSLNSYGVNWVRQAPGKGLEWVGGINTGGSTYYANWAKGRFTISRDNSKNTLYLQMNSLRAEDTAVYYCARTSGNNVYNYFTLWGQGTLVTVSS VL: DIQMTQSPSSLSASVGDRVTITCQASQSIPSLLAWYQQKPGKAPKLLIYAPSTLASGVPSRFSGSGSGTDFTLTISSLQPEDFATYYCQSYYYGDNTYNNIFGGGTKVEIK	0.091	0.142	1.99	1.5	–	–	–	–	–
humanized antibody clone 37 (taken as h600_25_37) (antibody, V domains shown) VH: EVQLVESGGGLVQPGGSLRLSCAASGIDLSNYAMGWVRQAPGKGLEWVGSRRTDGITYYANWAEGRFTISRDNSKNTLYLQMNSLRAEDTAVYYCGRDVGGEGGWYFNLWGQGTLVTVSS VL: DIQMTQSPSTLSASVGDRVTITCQASQSINIYLAWYQQKPGKAPKLLIYDASKLASGVPSRFSGSGSGTEFTLTISSLQPDDFATYYCQQGINNIGFGGGTKVEIK	0.056	0.072	109	–	–	–	–	–	–
chimeric antibody clone 57 (rab600_23_57) (antibody, V domains shown) VH: QSVEESGGRLVTPGTPLTLTCTVSGFSLSSYAMGWVRQAPGKGLEWIGIIGSGGNTYYATWAKGRFTISRTSTTVDLRITSPTTEDTATYFCARDVGYGDYDALDLWGQGTLVTVSS VL: DVVMTQTPSSVSEPVGGTVTIKCQASEEISSNLAWYQQKPGQPPKLLMYAASNLASGVSSRLKGSRSGTDYTLTISGVQCDDAATYFCQCTYIGSGYVVAFGGGTEVVVK	–	–	–	–	0.067	0.057	0.741	0.073	no binding
chimeric antibody clone 92 (rab600_25_92) (antibody, V domains shown) VH: QSVEESGGRLVKPDETLTLICTVSGFSLSSHHMIWVRQAPGEGLEGIGIIDAGSGSTYYASWAKGRFTISRTSTTVDLKIASPTTEDTATYFCARGGLTESLGTYFDLWGPGTLVTVSS VL: DIVMTQTPASVEAAVGGTVTIKCQASESIDSGLAWYQQKPGQRPKLLIYDSSTLASGVPSRFKGSGSGTDFTLTISDLECADAATYYCQSNYDTGSSVYDWGSFGGGTEVVVK	–	–	–	–	0.131	0.191	3.06	0.086	no binding
chimeric antibody clone 102 (rab600_23_102) (antibody, V domains shown) VH: QSVEESGGRLVTPGTPLTLTCTASGFSLSTYDMIWVRQAPGKGLEWIGYIWSDGITDYASWAKGRFTISKTSTTVDLKVTSPTTEDTATYFCARDVGYAGYGYYFDLWGQGTLVTVSS VL: ALVMTQTPASVEVAVGGTVTIKCQASQSITNYLAWYRQKPGQPPKLLIYGASKLASGVPSRFSGSGSGTEYTLTISGVQCDDAATYYCQQGYTSSNVDNPFGGGTEVVVK	–	–	–	–	0.207	0.327	100	0.0901	no binding
chimeric antibody clone 4 (rab600_23_4) (antibody, V domains shown) VH: QSVEESGGRLVTPGTPLTLTCTVSGIDLSSYTMGWVRQAPGKGLEYIGFISSSGHTYYANWAKGRFTISKTSSTTVDLKMTSLTTEDTATYFCARDGGYGGYDYTGIFNLWGQGTLVTVSS VL: DIVMTQTASPVSAAVGGTVTIKCQATESISSWLAWYQQKPGQPPKLLIYGASTLESGVPSRFSGSGSGTEFTLTISGVQCDDAATYYCQQGYIYTNVDNTFGGGTEVVVK	–	–	–	–	0.094	0.099	2.74	0.147	no binding
chimeric antibody clone 107 (rab600_23_107) (antibody, V domains shown) VH: QSVEESGGRLVTPGTPLTLTCTVSGFSLSSNAISWVRQAPGKGLEWIGIINTYDNTAYATWAKGRFSISRTSTTVDLKITSPATKDTATYFCARDVHNNVVPYYFDMWGQGTLVTVSS VL: AYDMTQTPATVEVAVGGTVTINCQASQSISNLLAWYQQKPGQRPKLLIYDTSDLASGVPSRFSGSGSGTEYTLTITGVECADAATYYCQQGYSSSNIDNVFGGGTEVVVK	–	–	–	–	0.325	0.315	2.22	0.485	no binding
chimeric antibody clone 108 (taken as rab600_25_108) (antibody, V domains shown) VH: QSVEESGGRLVTPGTPLTLTCKASGFSLSDYFMTWVRQAPGKGLEWIGIINTGGDSYYATWAKGRFTISKTSTTVDLKISSPTTEDTATYFCARDTGYGGYDYAGSFDPWGPGTLVTVSS VL: AIKMTQTPASVSEPVGGTVTIKCQASENINSWLAWYQQKPGQPPKLLIYEASKLASGVPSRFKGSGSGTQFTLTISDLECADAATYYCQQGYIYIDVGNIFGGGTEVVVK	–	–	–	–	0.256	0.327	4.55	0.18	no binding
chimeric antibody clone 127 (rab600_23_127) (antibody, V domains shown) VH: QEQLEESGGDLVKPEGSLTLTCTASGFDFSVNAMCWVRQAPGKGPEWIAYISNADGSTHYASWVNGRFTISRSTSLNTVTLQMTRLTVSDTATYFCARAPYAGYTGYGYLNLWGPGTLVTVSS VL: DVVMTQTPASVSGPVGGTVTIKCQASQNIDSDLAWYQQKPGQRPKLLIYDASKLASGVPSRFSGSGYGTEFTLTISGVQCEDAATYYCQYTYYINTYGGAFGGGTEVVVK	–	–	–	–	0.313	60	6.62	0.11	no binding
chimeric antibody clone 11D7.1 (rab600_23_11D7.1) (antibody, V domains shown, also called rab600_23_HD7.1) VH: QEQLEESGGGLVQPGGSLKLSCKASGFDFSRYYMSWVRQAPGKGLEWIGYIDPIFGNTYYASWVNGRFTISSHNAQNTLYLQLNNLTAADTATYFCARDGDAGYDGYGYGTDLWGPGTLVTVSS VL: QVLTQTPSSVSEPVGGTVTINCQASENIYSGLAWYQQKPGQPPKLLIVSAFTLASGVPSRFKGSGTGTEFTLTISGVQCDDAATYYCQTYYYGSVTYFNAFGGGTEVVVK	–	–	–	–	0.14	0.0396	6.09	0.17	no binding
